We go through three sequences from patent US10001489B2, “Method for constructing a novel affinity peptide library for binding immunoglobulin G based on a protein affinity model of protein A” (TIANJIN UNIVERSITY, priority 2012, dated 2018).

Where no end group is shown, it is not given here.

Test [1] relates to hIgG. The experiment in a line: Affinity chromatography, pulse injection of hIgG on peptide-coupled Thiopropyl Sepharose 6B column. Type of test: binding, human. On the procedure:
(§1) Peptide powders purchased from GL Biochem Ltd. (Shanghai, China) had been purified by high performance liquid chromatography (HPLC) with a purity of 96.36%. 1 g of resin (Thiopropyl Sepharose 6B, purchased from GE Healthcare) was weighed and washed for 15 min with 200 mL of deionized water in a buchner funnel. After being filtered and getting rid of water, two aliquots of 1.0 g of drained gel were transferred into two 25-mL Erlenmeyer flasks, respectively. Then 6 mL and 10.7 mL of linking buffer (0.1 M Tris-HCl, pH 7.5, 0.5 M NaCl and 1 mM EDTA) were added to the two flasks respectively, to fully pre-equilibrate the gels. […] The peptides were fully mixed with the gels in corresponding flasks and initial peptide concentrations of 1.0 mg/mL were obtained. The mixtures were reacting in a shaking bath at a rate of 180 rpm, at 25° C. for 2 h. 500 μL of supernatant was acquired each hour for analyzing the residue peptide content in the reaction solution with reversed-phase high pressure liquid chromatography (RP-HPLC). […] After the reaction was finished, the reaction system was centrifuged and the supernatant was removed, then the gel was washed repeatedly with washing buffer (10 mM PBS, pH 7.2, 150 mM NaCl) in a buchner funnel to get rid of the free peptides. Finally, equilibriation buffer (20 mmol/L citrate buffers, pH 5.0-5.5; or 20 mmol/L PBS buffers, pH 5.5-6.0) was used to suspend the gel to 1 mL, and after being degassed, the gel was slowly loaded into the glass column (Tricorn chromatogram column, Tricorn 5×5, GE healthcare). The column was first washed with equilibration buffer at 0.1 mL/min, and then the speed of the buffer was increased to 0.2 mL/min when the column pressure was stable, and the speed of the buffer was increased according to above operation till it reached 1.0 mL/min.
(1) Equilibration: the affinity column was washed with equilibration buffer until a stable baseline was reached. The flow rate of buffer was 0.5 mL/min, keep washing another five column volumes (CVs) before sample injection. […]

Test [2] addresses bovine serum albumin (BSA) (Bos taurus, UniProt P02769). In words: Affinity chromatography, BSA on peptide-coupled Thiopropyl Sepharose 6B column. Type of test: binding. On the procedure:
as §1
(1) Equilibration: the affinity column was washed with equilibration buffer until a stable baseline was reached. The flow rate of buffer was 0.5 mL/min, keep washing another five column volumes (CVs) before sample injection.
(2) Sample injection: unless specifically stated, all protein samples were prepared by equilibration buffer. After sample injection, the column was equilibrated with 5-10 CVs of equilibration buffer (20 mmol/L citrate buffer, pH≤5.5; or 20 mmol/L PBS buffer, pH≥5.5). The sample loading amount was 100 μL, protein sample concentration was 1.0 mg/mL, and the flow rate was 0.5 mL/min.
(3) Elution: the column was washed with 5-10 CVs of elution buffer, and the flow rate was 0.8 mL/min.
(4) Storage: first 10 CVs of deionized water was used to wash the column, followed by another 10 CVs of 20% ethanol solution. Then the affinity gel was stored in this solution. All buffers should be filtered through a filter and degassed before use.

Test [3] concerns the target bovine serum albumin (bovine) (UniProt P02769). In words: affinity chromatography, peptide immobilized on Thiopropyl Sepharose 6B, pH 5.5.
Test [4] shares this target. In words: affinity chromatography, peptide immobilized on Thiopropyl Sepharose 6B, pH 6.0.

Sequence of bovine serum albumin (BSA) (P02769 25-607): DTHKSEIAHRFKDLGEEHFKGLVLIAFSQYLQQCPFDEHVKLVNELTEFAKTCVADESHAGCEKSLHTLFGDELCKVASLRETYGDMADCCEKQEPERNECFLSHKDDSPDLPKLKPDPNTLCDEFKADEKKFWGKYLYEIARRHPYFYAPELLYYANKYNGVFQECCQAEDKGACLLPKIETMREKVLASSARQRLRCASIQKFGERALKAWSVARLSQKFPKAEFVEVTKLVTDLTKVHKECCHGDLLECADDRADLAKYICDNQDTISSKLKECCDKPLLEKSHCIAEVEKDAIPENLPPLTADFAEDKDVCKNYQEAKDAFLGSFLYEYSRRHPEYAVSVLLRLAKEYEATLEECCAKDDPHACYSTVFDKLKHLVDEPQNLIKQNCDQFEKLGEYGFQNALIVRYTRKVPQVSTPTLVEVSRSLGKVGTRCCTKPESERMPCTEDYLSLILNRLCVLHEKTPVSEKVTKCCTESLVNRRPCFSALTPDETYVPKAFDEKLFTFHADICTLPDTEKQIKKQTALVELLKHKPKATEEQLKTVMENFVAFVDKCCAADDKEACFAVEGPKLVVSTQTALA
Sequence of bovine serum albumin (bovine) (P02769 25-607 limits assumed): as the sequence (P02769 25-607) above

Turning to “FYWHCLDE (not fully specified (residue 5)) [synthesized and immobilized on Thiopropyl Sepharose 6B]”, the “binding of hIgG by immobilised peptide ligand” value in test [1] (pH 5.0-6.0) is “strong binding”. Further, the “binding of BSA by immobilised peptide ligand” value in test [2] (pH 5.5) is “large binding”.

In the case of “FYCHWALE (not fully specified (residue 3)) [synthesized and immobilized on Thiopropyl Sepharose 6B]”, the “binding of hIgG by immobilised peptide ligand” value in test [1] (pH 5.5-7.0) is “could bind a lot of hIgGs”; in test [1] (pH 6.0, 20 mM PBS), “could bind almost all hIgGs”. In addition, the “binding of BSA by immobilised peptide ligand” value in test [2] (pH 5.5) was “about half”; in test [2] (pH 6.5) it was “trace”. For the same sequence, the “binding of BSA by immobilised peptide ligand (fraction of BSA bound)” value in test [2] (pH 6.0) is “⅓”.

In the case of FYCHWALE peptide ligand, the fraction of loaded protein bound (fraction of BSA) in test [3] was 0.5; in test [4], 0.333.
